Measurements from US11911397B2, “Anordrin compositions and methods for treating diseases” (Zhejiang Jiachi Development Pharmaceuticals LTD, priority 2014, dated 2024).

Test system: MDA-MB-231 cells
Test: MDA-MB-231 cell migration (matrixgel / transwell)
Format: cell-based
Conditions: 10 nM E2 or 10 ng/ml EGF alone, 20 hours
Experimental: As anordrin has been reported as an anti-angiogenic agent resulting in inhibition of cell migration and invasion (16), we studied its ability to modulate MDA-MB-231 cell migration using matrixgel. […] After 20 hours migrated cells were stained and quantified using a plate reader at 560 nm.
Transwell and flow cytometry assay: Cells were starved for 48 hours in phenol red free medium containing 5% charcoal-stripped FBS, and then changed into phenol red free medium for an additional 24 hours. Transwell was performed following the Chemicon kit instructions (CAT #ECM551). Briefly, cells were trypsinized, washed using 1×DPBS containing Ca2+ and Mg2+ (Sigma) and resuspensed in serum and phenol red free medium at a cell density of 0.5×10^6 cells/ml.

B1: EGF: EGF, binds to Her1; used at 10 ng/ml as stimulus (protein, UniProt P01133 23-1207, looked up)
Pro-epidermal growth factor: PQHWSCPEGTLAGNGNSTCVGPAPFLIFSHGNSIFRIDTEGTNYEQLVVDAGVSVIMDFHYNEKRIYWVDLERQLLQRVFLNGSRQERVCNIEKNVSGMAINWINEEVIWSNQQEGIITVTDMKGNNSHILLSALKYPANVAVDPVERFIFWSSEVAGSLYRADLDGVGVKALLETSEKITAVSLDVLDKRLFWIQYNREGSNSLICSCDYDGGSVHISKHPTQHNLFAMSLFGDRIFYSTWKMKTIWIANKHTGKDMVRINLHSSFVPLGELKVVHPLAQPKAEDDTWEPEQKLCKLRKGNCSSTVCGQDLQSHLCMCAEGYALSRDRKYCEDVNECAFWNHGCTLGCKNTPGSYYCTCPVGFVLLPDGKRCHQLVSCPRNVSECSHDCVLTSEGPLCFCPEGSVLERDGKTCSGCSSPDNGGCSQLCVPLSPVSWECDCFPGYDLQLDEKSCAASGPQPFLLFANSQDIRHMHFDGTDYGTLLSQQMGMVYALDHDPVENKIYFAHTALKWIERANMDGSQRERLIEEGVDVPEGLAVDWIGRRFYWTDRGKSLIGRSDLNGKRSKIITKENISQPRGIAVHPMAKRLFWTDTGINPRIESSSLQGLGRLVIASSDLIWPSGITIDFLTDKLYWCDAKQSVIEMANLDGSKRRRLTQNDVGHPFAVAVFEDYVWFSDWAMPSVMRVNKRTGKDRVRLQGSMLKPSSLVVVHPLAKPGADPCLYQNGGCEHICKKRLGTAWCSCREGFMKASDGKTCLALDGHQLLAGGEVDLKNQVTPLDILSKTRVSEDNITESQHMLVAEIMVSDQDDCAPVGCSMYARCISEGEDATCQCLKGFAGDGKLCSDIDECEMGVPVCPPASSKCINTEGGYVCRCSEGYQGDGIHCLDIDECQLGEHSCGENASCTNTEGGYTCMCAGRLSEPGLICPDSTPPPHLREDDHHYSVRNSDSECPLSHDGYCLHDGVCMYIEALDKYACNCVVGYIGERCQYRDLKWWELRHAGHGQQQKVIVVAVCVVVLVMLLLLSLWGAHYYRTQKLLSKNPKNPYEESSRDVRSRRPADTEDGMSSCPQPWFVVIKEHQDLKNGGQPVAGEDGQAADGSMQPTSWRQEPQLCGMGTEQGCWIPVSSDKGSCPQVMERSFHMPSYGTQTLEGGVEKPHSLLSANPLWQQRALDPPHQMELTQ
modifications: Pro-epidermal growth factor
notes: used at 10 ng/ml as stimulus
Question: With B1 as the molecule, how does the MDA-MB-231 cell migration read?
Answer: slightly enhanced
